{"source": "patent US20230212319A1", "about": "“NOVEL ANTIGEN BINDING DOMAINS AND SYNTHETIC ANTIGEN RECEPTORS INCORPORATING THE SAME” (University of Southern California, priority 2020, published 2023)", "key": {"[1]": {"tested_on": "MCF7 cells", "format": "cell-based"}, "[2]": {"tested_on": "L363 (BCMA+) cells", "format": "cell-based"}, "[3]": {"tested_on": "RAJI cells", "experiment": "JNG (Jurkat NFAT-GFP) cells expressing SAR: GFP induction on co-culture with RAJI"}, "[4]": {"tested_on": "Raji cells expressing a membrane anchored scFv targeting Dsg3", "experiment": "JNG assay, co-culture with Raji cells expressing a membrane anchored scFv targeting Dsg3", "format": "cell-based", "conditions": "compared to parental Raji cells", "method": "Cellular supernatant is collected and assayed for the induction of cytokines (e.g., IL2).\nJNG (Jurkat cells expressing EGFP under an NFAT promoter) were infected with lentiviral vectors encoding different single chain and multi-chain SARs by spinfection in the presence of 8 µg/ml of Polybrene® (Sigma, Catalog no. H9268). The Jurkat-NFAT-GFP cells are engineered in such a way that the IL-2 promoter, which carries NFAT binding sites, is cloned upstream of the GFP gene. These cells have been used to study signaling via TCR and CAR. The different SARs were stably expressed in Jurkat NFAT-GFP cells by lentiviral mediated gene transfer, followed by selection with puromycin or blasticidin. No drug selection was used in case the construct lacked an antibiotic resistance gene. […] GFP expression was monitored by FACS analysis. […] The structure of different constructs can be determined based on their names. […] The sequence of the other constructs in the table can be similarly determined from their names and by referring to the different Tables of this disclosure that provide the names and SEQ ID NO of the different modules. Alternatively, the composition and modular architecture of the different SAR constructs can be determined from their sequences by bioinformatics tools, including using nucleic acid and amino acids homology searches. […]"}}, "data": [{"molecule": "21873 (protein) MALPVTALLLPLALLLHAARPDIQMTQSPSSLSASVGDRVTITCRASQDISSYLNWYQQKPGKAPKLLIYYTSRLHSGVPSRFSGSGSGTDFTLTISSLQPEDFATYYCQQGNTLPYTFGQGTKVEIKRLEDLKNVFPPEVAVFEPSEAEISHTQKATLVCLATGFYPDHVELSWWVNGKEVHSGVCTDPQPLKEQPALNDSRYCLSSRLRVSATFWQNPRNHFRCQVQFYGLSENDEWTQDRAKPVTQIVSAEAWGRADCGFTSESYQQGVLSATILYEILLGKATLYAVLVSALVLMAMVKRKDSRGRAKRSGSGATNFSLLKQAGDVEENPGPTSMDWIWRILFLVGAATGAHSFEVQLVESGGGLVQPGGSLRLSCAASGYTFSDYFMSWVRQAPGKGLEWVATISNGGTYTYYPDSVKGRFTISRDNSKNTLYLQMNSLRAEDTAVYYCARFDGYIFDYWGQGTLVTVSSTRIQNPDPAVYQLRDSKSSDKSVCLFTDFDSQTNVSQSKDSDVYITDKCVLDMRSMDFKSNSAVAWSNKSDFACANAFNNSIIPEDTFFPSPESSCDVKLVEKSFETDTNLNFQNLSVIGFRILLLKVAGFNLLMTLRLWSSRAKRSGSGVKQTLNFDLLKLAGDVESNPGPSRGHMTEYKPTVRLATRDDVPRAVRTLAAAFADYPATRHTVDPDRHIERVTELQELFLTRVGLDIGKVWVADDGAAVAVWTTPESVEAGAVFAEIGPRMAELSGSRLAAQQQMEGLLAPHRPKEPAWFLATVGVSPDHQGKGLGSAVVLPGVEAAERAGVPAFLETSAPRNLPFYERLGFTVTADVEVPEGPRTWCMTRKPGA", "values": [{"measurement": "NFAT-GFP ASSAY: MCF-7", "setting": "[1]", "value": "did not show GFP induction"}]}, {"molecule": "6821 (protein, Synthetic Polynucloetide) MALPVTALLLPLALLLHAARPQLQLQESGPGLVKPSETLSLTCTVSGDSISSGDYYWGWIRQPPGKGLEWIGHIYYSGVTYYNPSLKSRVTISVDTSRNQFSLKLSSVTAADTAVYYCTREDSSNWRSRGQGTLVTVSSLEGQPKANPTVTLFPPSSEELQANKATLVCLISDFYPGAVTVAWKADGSPVKAGVETTKPSKQSNNKYAASSYLSLTPEQWKSHRSYSCQVTHEGSTVEKTVAPTECSPIKTDVITMDPKDNCSKDANDTLLLQLTNTSAYYMYLLLLLKSVVYFAIITCCLLRRTAFCCNGEKSRAKRSGSGATNFSLLKQAGDVEENPGPTSMDWIWRILFLVGAATGAHSFEVQLLESGGGLIQPGGSLRLSCAASGFTFSSHAMTWVRQAPGKGLEWVSAISGSGDYTHYADSVKGRFTISRDNSKNTVYLQMNSLRAEDSAVYYCAKDEDGGSLLGHRGQGTLVTVSSTRASTKGPSVFPLAPSSKSTSGGTAALGCLVKDYFPEPVTVSWNSGALTSGVHTFPAVLQSSGLYSLSSVVTVPSSSLGTQTYICNVNHKPSNTKVDKRVEPKSCEVKTDSTDHVKPKETENTKQPSKSCHKPKAIVHTEKVNMMSLTVLGLRMLFAKTVAVNFLLTAKLFFLRAKRSGSGVKQTLNFDLLKLAGDVESNPGPSRGHMTEYKPTVRLATRDDVPRAVRTLAAAFADYPATRHTVDPDRHIERVTELQELFLTRVGLDIGKVWVADDGAAVAVWTTPESVEAGAVFAEIGPRMAELSGSRLAAQQQMEGLLAPHRPKEPAWFLATVGVSPDHQGKGLGSAVVLPGVEAAERAGVPAFLETSAPRNLPFYERLGFTVTADVEVPEGPRTWCMTRKPGA", "values": [{"measurement": "GFP expression on co-culture with L363 (BCMA+)", "setting": "[2]", "value": "strongly induced GFP expression"}, {"measurement": "GFP expression on co-culture with RAJI", "setting": "[3]", "value": "strongly induced GFP expression"}]}, {"molecule": "CD8SP-Dsg3-EC1-EC2-L693-IgCL-TCRb-wt2-opt-6MD-F-P2A-IgHSP-CD20-vHH2-HCD25-G4S-CD19-hu-mROO5-1-vH-IgG1-CH1-TCRa-wt2-opt-6MD-F-F2A-PAC (protein) MALPVTALLLPLALLLHAARPACEWVKFAKPCREGEDNSKRNPIAKITSDYQATQKITYRISGVGIDQPPFGIFVVDKNTGDINITAIVDREETPSFLITCRALNAQGLDVEKPLILTVKILDINDNPPVFSQQIFMGEIEENSASNSLVMILNATDADEPNHLNSKIAFKIVSQEPAGTPMFLLSRNTGEVRTLTNSLDREQASSYRLVVSGADKDGEGLSTQCECNIKVKDVNDNFPMFRDSLEGQPKANPTVTLFPPSSEELQANKATLVCLISDFYPGAVTVAWKADGSPVKAGVETTKPSKQSNNKYAASSYLSLTPEQWKSHRSYSCQVTHEGSTVEKTVAPTECSGRADCGFTSESYQQGVLSATILYEILLGKATLYAVLVSALVLMAMVKRKDSRGRAKRSGSGATNFSLLKQAGDVEENPGPTSATMDWIWRILFLVGAATGAHSGPQVQLQESGGGLAQAGGSLRLSCAASGRTFSMGWFRQAPGKEREFVAAITYSGGSPYYASSVRGRFTISRDNAKNTVYLQMNSLKPEDTAVYYCAANPTYGSDWNAENWGQGTQVTVSSGSGGGGSGGGGSGGGGSFEQVQLQQPGAELVKPGASVKMSCKASGYAFSSYWINWMKQKPGQGLEWIGQIYPGDGDTNYNGKFKGRATLTADTSSSTAYMQLSSLTSEDSAVYFCARSITTVVGCAMDYWGQGTSVTVSSTRASTKGPSVFPLAPSSKSTSGGTAALGCLVKDYFPEPVTVSWNSGALTSGVHTFPAVLQSSGLYSLSSVVTVPSSSLGTQTYICNVNHKPSNTKVDKRVEPKSCIPEDTFFPSPESSCDVKLVEKSFETDTNLNFQNLSVIGFRILLLKVAGFNLLMTLRLWSSRAKRSGSGVKQTLNFDLLKLAGDVESNPGPSRGHMTEYKPTVRLATRDDVPRAVRTLAAAFADYPATRHTVDPDRHIERVTELQELFLTRVGLDIGKVWVADDGAAVAVWTTPESVEAGAVFAEIGPRMAELSGSRLAAQQQMEGLLAPHRPKEPAWFLATVGVSPDHQGKGLGSAVVLPGVEAAERAGVPAFLETSAPRNLPFYERLGFTVTADVEVPEGPRTWCMTRKPGA", "values": [{"measurement": "GFP induction", "setting": "[4]", "value": "increased GFP induction"}]}]}
